Measured values reported in the RNAGym collection of RNA variant scans (doi:10.1093/nar/gkz1192).

B1: CPEB3 Ribozyme (parent)
chain: UAACAGGGGGCCACAGCAGAAGCGUUCACGUCGCAGCCCCUGUCAGAUUCUGGUGAAUCUGCGAAUUCUGCUGUAUAUCUC

Variants of: B1
Test: self-cleavage, relative activity (ratio to wild type); higher = more cleavage; in vitro, sequencing
Summary of the method: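 Relative activity was defined as the cleaved/total read fraction for a variant divided by the same fraction for the unmutated ribozyme. CPEB3 self-cleaving ribozyme libraries were made by rounds of error-prone PCR, barcoded, and transcribed in vitro with T7 RNA polymerase for 5 hours at 37°C, and cleavage ran through transcription plus a 15 min DNase I step before EDTA. Illumina sequencing of template-switched reverse transcripts gave the reads, and DNA sequencing mapped the barcodes. Averages come from three batches, using variants with at least 5 reads.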

Point of comparison: U41C G61C, self-cleavage 0.21. Against it:
- G42U U66G — higher, 0.32
- G42U U66C — higher, 0.48
- G42U U66A — higher, 0.26
- G42A U80A — higher, 0.79
- G42A U80C — higher, 0.36
- U41A U51A — higher, 0.36
- U41A U51G — higher, 0.42
- U41A U51C — higher, 0.31
- U41G U49C — higher, 0.38
- U41A U49C — higher, 0.23
- U41A U49A — higher, 0.23
- G42A A64U — lower, 0.14
- G42A A64G — the same, 0.21
- G42U U60C — lower, 0.17
- G42U U60A — the same, 0.21
- G42A U78C — the same, 0.21
- G42C U48A — lower, 0.13
- G42A A45C — higher, 0.32
- G42A A45G — higher, 0.3
- G42A U48C — higher, 0.33
- U41A U58G — higher, 0.23
- U41A U58A — higher, 0.22
- U41A U58C — higher, 0.23
- G42C U74C — higher, 0.3
- U41C G46U — higher, 0.34
- U41C G46C — higher, 0.42
- U41C U58G — higher, 0.41
- U41C U58C — higher, 0.58
- U41C U58A — higher, 0.47
- U41C U49A — higher, 0.89
- U41C U49C — higher, 0.5
- U41G A45G — higher, 0.25
- U41G A45U — lower, 0.17
- G42U U69G — lower, 0.14
- U41C U76A — higher, 1.17
- U41C U76C — higher, 1.05
- U41C U76G — higher, 1.05
- U41A G52A — lower, 0.19
- U41A G52U — the same, 0.21
- U41A G52C — higher, 0.67
- U41A G73U — higher, 0.42
- U41A G73C — lower, 0.17
- U41A G73A — higher, 0.45
- U41C A56U — higher, 0.75
- U41C A56G — higher, 0.94
- U41C A56C — higher, 0.64
- G42U U58A — lower, 0.11
- U41A U80C — higher, 0.32
- U41A U80A — higher, 0.28
- U41A U80G — higher, 0.41
- U41C G73U — higher, 1.28
- U41C G73C — higher, 1.25
- U41C G73A — higher, 1.23
- U41C G70U — higher, 0.5
- U41C G70A — higher, 0.62
- U41C G63C — higher, 1.06
- U41C G63A — higher, 0.89
- U41C G63U — higher, 1.13
- G42A C59G — higher, 0.23
- U41C G42C — higher, 0.23
- U41C G42A — higher, 0.23
- G42U U43A — higher, 0.54
- G42U U43C — higher, 0.43
- U41G U58A — higher, 0.33
- U41G U58G — lower, 0.16
- U41G U58C — lower, 0.18
- U41G U78A — higher, 0.26
- U41G U78C — the same, 0.21
- U41G U78G — lower, 0.2
- U41A C79U — higher, 0.41
- U41A C79G — higher, 0.37
- U41A C79A — higher, 0.32
- U41A C44A — lower, 0.15
- U41A C44U — higher, 0.23
- G42A A56G — lower, 0.16
- G42A A56U — higher, 0.28
- U41C C71U — higher, 0.76
- U41C C71A — higher, 0.33
- U41C C71G — higher, 0.4
- G42A C44G — lower, 0.11
- U41A U69A — lower, 0.14
- U41A U69C — higher, 0.24
- U41A U69G — higher, 0.33
- U41G U51C — the same, 0.21
- U41G U51A — higher, 0.37
- U41G U51G — higher, 0.27
- G42C U60C — higher, 0.24
- G42U A57G — lower, 0.19
- U41A C59A — lower, 0.13
- U41A C59U — lower, 0.06
- G42A U49A — the same, 0.21
- U41A A65U — lower, 0.17
- U41A A65G — higher, 0.25
- U41C C81U — higher, 1.19
- U41C C81A — higher, 1.19
- G42A C81U — higher, 0.4
- G42A C81G — higher, 0.35
- G42A U51C — higher, 0.29
- U41C G61A — higher, 0.34
- U41C G61U — higher, 0.62
- U41C U51G — higher, 0.81
- U41C U51A — higher, 1.06
- U41C U51C — higher, 1.08
- U41G U54C — higher, 0.38
- U41G U54G — higher, 0.23
- G42U G53A — higher, 0.31
- U41G G52C — lower, 0.14
- U41G U74C — higher, 0.35
- U41G U74A — higher, 0.37
- U41A A57U — lower, 0.13
- U41A A57G — higher, 0.25
- U41A A57C — higher, 0.4
- U41A C68A — lower, 0.17
- G42C U72C — the same, 0.21
- G42C U43A — higher, 0.33
- G42C U43C — lower, 0.14
- U41A G55U — lower, 0.2
- U41A G55C — higher, 0.34
- U41A G55A — lower, 0.19
- U41A G46U — higher, 0.29
- U41A G46A — higher, 0.3
- U41G U66C — lower, 0.2
- U41C A77U — higher, 1.17
- U41C A77C — higher, 1.09
- U41C A77G — higher, 1.17
- U41A U67G — lower, 0.18
- U41A U67A — higher, 0.36
- U41A U67C — the same, 0.21
- U41A G53C — higher, 0.23
- U41A G53A — higher, 0.38
- U41A A47G — higher, 0.29
- U41A A47U — higher, 0.3
- G42U A64U — lower, 0.13
- U41G U80C — higher, 0.29
- U41G U80A — higher, 0.26
- G42A U74C — higher, 0.64
- G42A A57U — lower, 0.18
- G42A A57G — lower, 0.16
- U41G C71G — higher, 0.33
- G42A A47G — higher, 0.42
- G42A G53C — higher, 0.29
- U41G A77G — lower, 0.2
- U41G A77U — higher, 0.36
- U41G U60C — lower, 0.18
- U41G U60A — lower, 0.16
- U41G A56G — higher, 0.22
- U41G A56U — higher, 0.25
- U41C C59U — higher, 0.89
- U41C C59A — higher, 0.27
- U41G U69G — higher, 0.22
- U41G U69C — lower, 0.19
- U41G U69A — higher, 0.36
- U41C A64C — higher, 0.46
- U41C A64G — higher, 0.77
- U41C A64U — higher, 0.4
- G42A U66C — higher, 0.38
- U41C G52U — higher, 1.03
- U41C G52C — higher, 1.12
- U41C G52A — higher, 1.18
- G42C — higher, 0.51
- G42U — higher, 0.31
- G42A — higher, 0.34
- U41A G70U — lower, 0.12
- U41C U69G — higher, 0.79
- U41C U69C — higher, 0.57
- U41C U69A — higher, 0.67
